# According to US20240390468A1, “SURVIVIN AND MAGE-A9 DUAL-TARGETED IMMUNOTHERAPY” (IMMUNOVACCINE TECHNOLOGIES INC., priority 2022, published 2024):
# Test system: splenocytes of A2/DR1 mice
# Assay: IFN-γ ELISA after stimulation of spleen cells with peptides
# Format: cell-based
# Method: FIG. 25 depicts cytokine response upon stimulation with reactive HLA-A2 MAGE-A9 peptides. Groups of three A2/DR1 mice were either not immunized (naive mice) or immunized twice with a pool of four reactive peptides in CTL assays (M9-A2-24; M9-A2-111; M9-A2-223; M9-A2-270) or with adjuvants only, as control. Mice were sacrificed after 28 days and spleens were collected for isolation of splenocytes. Splenocytes were restimulated for 72 h with either individual peptides or the peptide pool. Supernatant was collected and assayed by ELISA for secretion of murine INF-7. Bars represent mean of triplicate plus or minus standard deviation (SD). Tukey's multiple comparisons test was used to determine adjusted p values. *=p<0.05, **=p<0.01, ***=p<0.001, ****=p<0.0001.
# INF-γ secreted after stimulation of spleen cells with the four peptides were tested by ELISA.
# Supernatants from cultures of whole splenocytes stimulated with the irradiated splenocytes loaded with the peptides were collected after 72 hours of stimulation and the amounts of IFN-γ were estimated by sandwich ELISA using the mouse IFN-γ ELISA Max set Deluxe kit (BioLegend, San Diego, CA).
molecule,measurement,value
"recombinant MAGE-A9: his-tag MAGE-A9 full-length recombinant protein used as immunogen admixed with poly(I:C) (protein, UniProt P43362 1-315, looked up, full-length His tag) MSLEQRSPHCKPDEDLEAQGEDLGLMGAQEPTGEEEETTSSSDSKEEEVSAAGSSSPPQSPQGGASSSISVYYTLWSQFDEGSSSQEEEEPSSSVDPAQLEFMFQEALKLKVAELVHFLLHKYRVKEPVTKAEMLESVIKNYKRYFPVIFGKASEFMQVIFGTDVKEVDPAGHSYILVTALGLSCDSMLGDGHSMPKAALLIIVLGVILTKDNCAPEEVIWEALSVMGVYVGKEHMFYGEPRKLLTQDWVQENYLEYRQVPGSDPAHYEFLWGSKAHAETSYEKVINYLVMLNAREPICYPSLYEEVLGEEQEGV",subtype of T cells induced after immunization,Th1 subtype
